This passage reports Km and kcat results from paper PMC6306009, “Combined use of cutinase and high-resolution mass-spectrometry to query the molecular architecture of cutin” (Plant Methods, 2018).

In general, Km refers to the substrate concentration at which the rate is half of its maximum. The kcat is the number of substrate molecules converted per active site and unit of time at saturation.

The target of data set [1] is T1, F. solani cutinase (Fusarium vanettenii, UniProt P00590).
T1 construct: gene CUT1; codon-optimised ORF, His-tagged, pET30f, E. coli BL21(DE3), sarkosyl extraction, Ni-NTA purified; 24-30 kDa on SDS-PAGE
Put plainly: p-nitrophenol release, absorbance at […] nm. The format is biochemical. Conditions: 20 mM Tris-HCl pH 8, 10 mM NaCl, 10% acetonitrile (standard assay); temperature not given.

The subject of data set [2] is CCCC(=O)Oc1ccc([N+](=O)[O-])cc1. Put plainly: purified protein. Conditions: 20 mM Tris-HCl pH 8, 10 mM NaCl, 10% acetonitrile (standard assay), temperature not given.

T1 sequence (P00590 32-230): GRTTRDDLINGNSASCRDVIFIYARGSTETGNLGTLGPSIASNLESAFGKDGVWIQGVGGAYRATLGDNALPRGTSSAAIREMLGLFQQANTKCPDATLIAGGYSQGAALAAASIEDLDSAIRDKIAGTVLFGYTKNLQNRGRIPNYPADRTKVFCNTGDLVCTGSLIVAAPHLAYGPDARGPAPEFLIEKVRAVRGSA

On to `CCCC(=O)Oc1ccc([N+](=O)[O-])cc1` [p-nitrophenyl butyrate], for which, in data set [1], the Km was 1.26 ± 0.06 mM.

Consider “A. brassicicola cutinase (Alternaria brassicicola)”, for which, in data set [2], the Km is 0.87 ± 0.05 mM and the kcat was 12 ± 0.80 s⁻¹.
